The chains are these.
B1: BIIB-9-605 (antibody, V domains shown)
VH: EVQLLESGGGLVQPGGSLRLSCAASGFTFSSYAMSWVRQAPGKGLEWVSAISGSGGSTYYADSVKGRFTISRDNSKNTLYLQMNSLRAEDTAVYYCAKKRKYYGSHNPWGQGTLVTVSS
VL: DIQMTQSPSSVSASVGDRVTITCRASQGISSWLAWYQQKPGKAPKLLIYAASSLQSGVPSRFSGSGSGTDFTLTISSLQPEDFATYYCQQADVFPFTFGGGTKVEIK
B2: BIIB-9-581 (antibody, V domains shown)
VH: QVQLVQSGAEVKKPGASVKVSCKASGYTFTSYYMHWVRQAPGQGLEWMGIINPSGGSTSYAQKFQGRVTMTRDTSTSTVYMELSSLRSEDTAVYYCARDPLYYREGYVFDYWGQGTLVTVSS
VL: B1 VL with V11L, G28S, W32Y, A34N, A91S, V93L
B3: BIIB-9-883 (antibody, V domains shown)
VH: QVQLVQSGAEVKKPGASVKVSCKASGYTFTSYYMHWVRQAPGQGLEWMGIINPSGGSTSYAQKFQGRVTMTRDTSTSTVYMELSSLRSEDTAVYYCARDGRLSYTWDRWGQGTLVTVSS
VL: DIQMTQSPSSLSASVGDRVTITCQASQDITNYLNWYQQKPGKAPKLLIYDASNLETGVPSRFSGSGSGTDFTFTISSLQPEDIATYYCQQADHFPFTFGGGTKVEIK
B4: BIIB-9-569 (antibody, V domains shown)
VH: QVQLVQSGAEVKKPGASVKVSCKASGYTFTSYYMHWVRQAPGQGLEWMGIINPSGGSTSYAQKFQGRVTMTRDTSTSTVYMELSSLRSEDTAVYYCARDGSGYSPYSFDPWGQGTLVTVSS
VL: B3 VL with T30S, E55A, H93D
B5: BIIB-9-479 (antibody, V domains shown)
VH: QVQLQESGPGLVKPSETLSLTCTVSGGSISSYYWSWIRQPPGKGLEWIGSIYYSGSTNYNPSLKSRVTISVDTSKNQFSLKLSSVTAADTAVYYCAREHYGDYPLFDIWGQGTMVTVSS
VL: DIQMTQSPSTLSASVGDRVTITCRASQSISSWLAWYQQKPGKAPKLLIYKASSLESGVPSRFSGSGSGTEFTLTISSLQPDDFATYYCQQYRILSPTFGGGTKVEIK
B6: BIIB-9-607 (antibody, V domains shown)
VH: QLQLQESGPGLVKPSETLSLTCTVSGGSISSSSYYWGWIRQPPGKGLEWIGSISYSGSTYYNPSLKSRVTISVDTSKNQFSLKLSSVTAADTAVYYCARDRGYSYEDFDLWGRGTLVTVS
VL: B5 VL with Y91A, R92G, I93R, L94Y, S95P, P96L
B7: BIIB-9-573 (antibody, V domains shown)
VH: QLQLQESGPGLVKPSETLSLTCTVSGGSISSSSYYWGWIRQPPGKGLEWIGSIYYSGSTYYNPSLKSRVTISVDTSKNQFSLKLSSVTAADTAVYYCARESKTKGYLDLWGRGTLVTVSS
VL: EIVLTQSPGTLSLSPGERATLSCRASQSVSSSFLAWYQQKPGQAPRLLIYGASSRATGIPDRFSGSGSGTDFTLTISRLEPEDFAVYYCQQSHSPPYTFGGGTKVEIK
B8: BIIB-9-888 (antibody, V domains shown)
VH: QVQLVQSGAEVKKPGASVKVSCKASGYTFTSYYMHWVRQAPGQGLEWMGIINPSGGSTSYAQKFQGRVTMTRDTSTSTVYMELSSLRSEDTAVYYCARGPTDSSGYLDMDVWGKGTTVTVSS
VL: EIVMTQSPATLSVSPGERATLSCRASQSVSSNLAWYQQKPGQAPRLLIYGASTRATGIPARFSGSGSGTEFTLTISSLQPEDFAVYYCQQAFNWPPTFGGGTKVEIK
B9: BIIB-9-611 (antibody, V domains shown)
VH: QVQLVQSGAEVKKPGASVKVSCKASGYTFTSYYMHWVRQAPGQGLEWMGIINPSGGSTSYAQKFQGRVTMTRDTSTSTVYMELSSLRSEDTAVYYCAREVISRVSYFDLWGRGTLVTVSS
VL: B8 VL with P80S, A91D, F92N, N93I, W94H, P96Y

In general, Kd refers to the concentration at which binding is half-saturated. A higher Kd goes with a looser complex.

Positions count from the first letter of the chain named.

In the assay the target is free FIXa (activated Factor IX) (UniProt P00740 47-191; P00740 227-461). The experiment in a line: BLI. (BLI is a label-free optical method that tracks binding on a fibre tip over time.)
Turning to B1, the affinity, expressed as Kd, was 0.00863 µM.
As for B2, the equilibrium dissociation constant (Kd) came out at 0.0129 µM.
In turn, B3 came in with a dissociation constant (Kd) of 0.0175 µM.
Consider B4, for which binding was characterised by a dissociation constant (Kd) of 0.00705 µM.
In the case of B5 it was 0.0583 µM; in that of B6, 0.00657 µM; in that of B7, 0.00858 µM.
In the case of B8 it was 0.0656 µM.
In the case of B9 it was 0.0186 µM.

(Values after patent US20230192896A1 (published 2023).)
